Reference: patent publication US5942663A, “Biocidal proteins” (Zeneca Limited, priority 1991, dated 1999)
No end group written: not given here.

Experiments:
Sarcina lutea = assay: Antibacterial activity in vitro test; type: cell-based; conditions: S lutea, 48 hours
Method: (§1) The antibacterial activity of the Mj-AMPs was tested against a range of gram-positive and gram-negative bacteria: Bacillus megaterium, Sarcina lutea, Escherichia coli and Erwinia carotovora. β-purothionin and UDA were also tested for comparison (see Example 7). Tests were performed in soft agarose medium containing 1% tryptone and, with or without 1 mM CaCl2 and 50 mM KCl. Absorbance, 595 nm, of the culture was measured after 48 hours.

Erwinia carotovora = assay: Antibacterial activity in vitro test; type: cell-based; conditions: E carotovora, 48 hours
Method: as §1

Ascochyta pisi = type: cell-based; conditions: A pisi, 48 hours of incubation
Nectria haematococca = type: cell-based; conditions: N haematococca, 48 hours of incubation
Verticillium dahliae = type: cell-based; conditions: V dahliae, 48 hours of incubation
Fusarium culmorum [1] = assay: Stability of the antifungal activity of the Mj-AMPs; type: cell-based
Method: Antifungal activity was measured by microspectrophotometry as previously described (Broekaert, WF et al; 1990; FEMS Microbiol Lett, 69, 55-60). Routinely, tests were performed with 20 μl of a (filter-sterilized) test solution and 80 μl of a fungal spore suspension (2×10^4 spores/ml) in half strength Potato Dextrose Broth (Difco). Control microcultures contained 20 μl of (sterile) distilled water and 80 μl of the fungal spore suspension. Unless otherwise stated the test organism was Fusarium culmorum and incubation was done at 25° C. for 48 hours. Percent growth inhibition is defined as 100 times the ratio of the corrected absorbance of the control microculture minus the corrected absorbance of the test microculture over the corrected absorbance at 595 nm of the control microculture. The corrected absorbance values equal the absorbance at 595 nm of the culture measured after 48 hours minus the absorbance at 595 nm measured after 30 min. Values of growth inhibition lower than 10% are not indicated on the chromatograms.
Table 1 summarises the results of further testing of the stability of the antifungal activity of the Mj-AMPs. Tests for antifungal activity were performed with 20 μl samples diluted five-fold with growth medium containing Fusarium culmorum spores (2×10^4 spores/ml), according to the assay method given in Example 2. Control samples contained either Mj-AMP1 at 500 μg/ml or Mj-AMP2 at 100 μg/ml in 10 mM sodium phosphate buffer (pH 7). Reduction was done by addition of DTT at 2.5 mM followed by incubation at 37° C. for 2 hours. pH stability was tested in the following buffers: 20 mM glycine-HCl (pH 2 and 3); 20 mM diethanolamine-HCl (pH 10); and 20 mM glycine-NaOH (pH 11). After 1 hour of incubation in the appropriate buffers the samples were dialyzed for 16 hours against 10 mm sodium phosphate buffer (pH 7). For digestions, proteases were added at 100 μg/ml and incubated at 37° C. for 16 hours.

Isoelectric focusing = type: physicochemical; conditions: isoelectric focusing on Immobiline Dry Strips
Method: PAS staining for glycoproteins was done by the method of Zacharius, RM et al (1969; Anal Biochem, 30, 148-152) using ovalbumin (3.2% carbohydrate) as a positive control sample. The pI values of Mj-AMP1 and Mj-AMP2 were determined by isoelectric focusing and found to be about 10.5 for both proteins. Isoelectric focussing was done on precast Immobiline Dry Strips (Pharmacia) using marker proteins in the pI range from 4.7 to 10.6 (Pharmacia).

Phoma betae = type: cell-based; conditions: P betae, 48 hours of incubation
[2] = system: Pyrenophora tritici-repentis; type: cell-based; conditions: P tritici-repentis, 48 hours of incubation
Venturia inaequalis = type: cell-based; conditions: V inaequalis, 10 days of incubation
Alternaria brassicola = type: cell-based; conditions: A brassicola, 48 hours of incubation
[3] = system: Fusarium oxysporum f.sp. pisi; type: cell-based; conditions: 48 hours of incubation
Fusarium culmorum [4] = type: cell-based; conditions: F culmorum, 48 hours of incubation
[5] = system: Fusarium oxysporum f.sp. lycopersici; type: cell-based; conditions: 48 hours of incubation
Cercospora beticola = assay: Foliar diseases in vivo test, protectant foliar spray; conditions: C beticola on sugarbeet, foliar spray 100 μg/ml
Method: The plants were grown in John Innes Potting Compost (No 1 or 2) in 4 cm diameter mini-pots. The protein preparation was formulated immediately prior to use by dissolving in sterile deionised water and diluting to the appropriate concentration. It is assumed that the protein extract contains approximately 1% active ingredient. A pure sample of Mj-AMP1 was similarly prepared. The formulations were applied to the plants as a foliar spray. The spray was applied to maximum discrete droplet retention. Tween 20, to give a final concentration of 0.05%, was added when the spray was applied to cereals. The protein preparation was applied to the foliage (by spraying) one or two days before the plant was inoculated with the disease (protectant application). […] After inoculation, the plants were put into an appropriate environment to allow infection to proceed and then incubated until the disease was ready for assessment. […]
Results are shown in Table 3 for the three fungal pathogens: Septoria nodorum (Fungi Imperfecti) tested on wheat, Plasmopara viticola (Phycomycete) tested on grapevine, and Cercospora beticola tested on sugarbeet. The disease control was recorded by the following grading: 4=no disease; 3=trace-5% of disease on untreated plants; 2=6-25% of disease on untreated plants; 1=26-60% of disease on untreated plants; 0=61-100% of disease on untreated plants.

[6] = MEDIUM +Ca/K (1 mM CaCl2 and 50 mM KCl)

**Q.** What does the source list for “Mj-AMP1: antimicrobial protein from Mirabilis jalapa seeds, dimer of two 4 kDa subunits, 37 residues, SEQ ID NO:1 (QCIGNGGRCNENVGPPYCCSGFCLRQPGQGYGYCKNR; cysteine pairing not given here; also: homodimer)”?
**A.** IC50 (Sarcina lutea; [6]): > 500 µg/mL; IC50 (Sarcina lutea; MEDIUM -Ca/K): 100 µg/mL; IC50 (Erwinia carotovora; [6]): > 500 µg/mL; IC50 (Erwinia carotovora; MEDIUM -Ca/K): > 500 µg/mL; IC50 (Ascochyta pisi): 200 µg/mL; IC50 (Nectria haematococca): 15 µg/mL; IC50 (Verticillium dahliae): 12 µg/mL; Relative antifungal activity (shown as % of control activity) (Fusarium culmorum [1]; 80° C., 10 min): 100 % of control activity; Relative antifungal activity (shown as % of control activity) (Fusarium culmorum [1]; 90° C., 10 min): 100 % of control activity; Relative antifungal activity (shown as % of control activity) (Fusarium culmorum [1]; 100° C., 10 min): 100 % of control activity; Relative antifungal activity (shown as % of control activity) (Fusarium culmorum [1]; Chymotrypsin digestion, 100 μg/ml, 37° C., 16 hours): 12 % of control activity; Relative antifungal activity (shown as % of control activity) (Fusarium culmorum [1]; Control: Mj-AMP1 500 μg/ml or Mj-AMP2 100 μg/ml in 10 mM sodium phosphate buffer pH 7): 100 % of control activity; Relative antifungal activity (shown as % of control activity) (Fusarium culmorum [1]; Pronase E digestion, 100 μg/ml, 37° C., 16 hours): 50 % of control activity; Relative antifungal activity (shown as % of control activity) (Fusarium culmorum [1]; Proteinase K digestion, 100 μg/ml, 37° C., 16 hours): 100 % of control activity; Relative antifungal activity (shown as % of control activity) (Fusarium culmorum [1]; Reduction: DTT 2.5 mM, 37° C., 2 hours): < 6 % of control activity; Relative antifungal activity (shown as % of control activity) (Fusarium culmorum [1]; Trypsin digestion, 100 μg/ml, 37° C., 16 hours): 75 % of control activity; Sensitivity to protease (in words) (Fusarium culmorum [1]; chymotrypsin): sensitive; Relative antifungal activity (shown as % of control activity) (Fusarium culmorum [1]; pH 2, 60 min): 100 % of control activity; Relative antifungal activity (shown as % of control activity) (Fusarium culmorum [1]; pH 3, 60 min): 100 % of control activity; Relative antifungal activity (shown as % of control activity) (Fusarium culmorum [1]; pH 10, 60 min): 100 % of control activity; Relative antifungal activity (shown as % of control activity) (Fusarium culmorum [1]; pH 11, 60 min): 100 % of control activity; Sensitivity to protease (in words) (Fusarium culmorum [1]; pronase E): resisted almost completely; Sensitivity to protease (in words) (Fusarium culmorum [1]; proteinase K): resisted almost completely; Sensitivity to protease (in words) (Fusarium culmorum [1]; trypsin): resisted almost completely; pI (Isoelectric focusing): about 10.5; IC50 (Phoma betae): 25 µg/mL; IC50 [2]: 300 µg/mL; IC50 (Venturia inaequalis): 12 µg/mL; IC50 (Alternaria brassicola): 20 µg/mL; IC50 [3]: 15 µg/mL; IC50 (Fusarium culmorum [4]): 30 µg/mL; IC50 [5]: 200 µg/mL; Disease control grading (Cercospora beticola): 3 (3=trace-5% of disease on untreated plants)
